Experimental data as given in article doi:10.1101/2024.12.16.628640.

Key:
[1] = target: D-glucose isomerase (D-xylose isomerase, XylA) of Xanthomonas campestris, His-tagged (Xanthomonas campestris); test: SEC
[2] = target: D-glucose isomerase (XylA) of Xanthomonas campestris with the exchange W147S, His-tagged (Xanthomonas campestris); test: SEC

stoichiometry N [1] | stoichiometry N [2] | Substance
2 |  | D-glucose isomerase (D-xylose isomerase, XylA) of Xanthomonas campestris, His-tagged (enzyme)
 | 2 | D-glucose isomerase (XylA) of Xanthomonas campestris with the exchange W147S, His-tagged (enzyme)
